Source: patent JP2020075879A (dated 2020)

Biological target: T1, C末端FLAGタグを有する切り捨てられたヒトRNF43 (Ba/F3 E12細胞に発現) (human, UniProt Q68DV7 24-237)
T1 construct: also called E12細胞株; Ba/F3 E12トランスフェクタント
T1 sequence: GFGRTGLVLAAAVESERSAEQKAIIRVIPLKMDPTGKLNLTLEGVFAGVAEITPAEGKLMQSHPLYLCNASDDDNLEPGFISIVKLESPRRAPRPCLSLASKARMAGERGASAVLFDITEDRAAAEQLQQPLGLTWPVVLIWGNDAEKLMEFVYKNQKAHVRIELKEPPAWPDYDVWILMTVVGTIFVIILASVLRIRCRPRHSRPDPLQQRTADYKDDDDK
Test: flow cytometry on Ba/F3 E12 cells, antibody at 2.5 microg/ml, PE anti-human IgG detection

B1: 抗RNF43単一特異性抗体RNN0802 (antibody, human IgG1, kappa, N297A, V domains shown)
VH: QSLEESGGRLVTPGGSLTLTCRVSGFSLSNYDMSWVRQAPGKGLEWIGFITSSGRTYYASWAKGRFTISKTSTMVDLKITSPTTEDTATYFCARDFENDDSAMWGPGTLVTVSS
VL: DVVMTQTPSSVSAAVGGTVTINCQASQSVYDNNLAWYQQKPGQPPKLLIYKASKLASGVPSRFKGSGSGTEFTLTISDLECADAATYYCQSNYYSNTNGLGSFGGGTKVEIKR
notes: also called 単一特異的RNN0802; 単一特異的RNN0802(二価IgG)
binding result: binds
